Patent US20250206841A1 (ADEPT THERAPEUTICS, published 2025)

Experiments:
[1] = biological target: T1, human Trop-2-His protein (human, UniProt P09758 27-274); test: BLI (Gator Plus), purified Ab on HFC probe
T1 construct: extracellular domain; Assay paragraphs say only 'Trop-2-His'; also called hTrop-2; Kactus Cat #TRP-HM121; not shown: His tag
T1 sequence (looked up): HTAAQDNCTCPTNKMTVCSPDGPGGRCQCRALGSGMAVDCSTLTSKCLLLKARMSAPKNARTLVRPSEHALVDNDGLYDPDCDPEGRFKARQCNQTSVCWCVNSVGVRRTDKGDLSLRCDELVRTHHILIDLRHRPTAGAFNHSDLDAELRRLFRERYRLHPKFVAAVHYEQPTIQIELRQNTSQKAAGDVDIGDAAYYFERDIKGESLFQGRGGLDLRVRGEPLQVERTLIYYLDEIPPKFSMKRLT
Protocol: The affinity of the binding of the exemplary anti-Trop-2 antibodies of the present disclosure were determined. Assay was performed using Gator Plus according to the protocol recommended by Gator Bio Inc.. Briefly, human Trop-2-His (Kactus) was 1:4 fold serially diluted starting at 1 μg/ml. After three times of regeneration and neutralization of HFC probe, 1 μg/ml of antibody to be tested in Q buffer was immobilized onto HFC probe. […] The association and dissociation of human Trop-2-His antigen from antibody was measured on BLI machine Gator Plus. Affinity was calculated using Gator Bio analysis software. Blank control was used for reference subtraction. Sacituzumab govitecan was used as positive control.

[2] = biological target: T2, human Trop-2 expressed on cell surface (human, UniProt P09758 27-323); test: flow cytometry, MCF-7 cells
T2 construct: whole, on cells; also called cell surface Trop-2
T2 sequence (looked up): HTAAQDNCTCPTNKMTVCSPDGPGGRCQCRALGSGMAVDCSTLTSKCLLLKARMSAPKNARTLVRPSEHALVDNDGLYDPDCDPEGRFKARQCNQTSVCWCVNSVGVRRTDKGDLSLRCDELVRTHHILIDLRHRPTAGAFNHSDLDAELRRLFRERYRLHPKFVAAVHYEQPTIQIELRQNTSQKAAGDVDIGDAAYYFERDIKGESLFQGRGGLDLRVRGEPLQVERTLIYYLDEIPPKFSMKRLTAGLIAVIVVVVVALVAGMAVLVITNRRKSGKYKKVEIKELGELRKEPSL
Protocol: Cells were then resuspended in FACS buffer (1×DPBS/1% FBS) at 10⁶/ml concentration. One hundred microliter (100 μl) of cells were aliquoted into a single well in 96 well plates. The antibodies to be tested were serially diluted at 1:3 fold starting at 15 μg/mL and were then added into each well. The antibodies were mixed with cells and the mixtures were incubated on ice for 1 hour. After washing with FACS buffer, one hundred microliter (100 μl) of 1:400 diluted PE-conjugated anti-human Fc secondary antibody (Jackson Immuno Research) was added into each well and incubated for 30 minutes on ice. After washing with FACS buffer, stained cells were resuspended at diluted 7-ADD (Biolegend, used at 1:100 dilution) and analyzed on Guava 11HT or 5HT (Luminex). Data was analyzed using Flowjo software. EC₅₀ values were calculated using GraphPad Prism. Sacitnzurnab govitecan was used as positive control. Anti-HEL.hIgG1 was used as isotype negative control. Similar assay was performed using MCF-7 cells (known to express human Trop-2).

[3] = biological target: T2, human Trop-2 expressed on cell surface; test: cell-based or functional assay
[4] = biological target: T3, mouse Trop-2 (mouse, UniProt Q8BGV3 25-270, limits assumed); test: ELISA, similar to Table 24
T3 construct: also called Kactus Cat #TRP-MM121
T3 sequence (looked up): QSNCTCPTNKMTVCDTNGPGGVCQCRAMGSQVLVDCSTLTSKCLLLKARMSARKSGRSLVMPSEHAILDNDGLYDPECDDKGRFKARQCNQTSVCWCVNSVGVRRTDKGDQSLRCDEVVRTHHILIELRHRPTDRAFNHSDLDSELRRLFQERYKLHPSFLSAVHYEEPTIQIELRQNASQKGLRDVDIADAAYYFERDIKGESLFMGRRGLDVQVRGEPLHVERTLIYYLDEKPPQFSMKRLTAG

[5] = biological target: T4, human Trop-1 (EpCAM) (human, UniProt P16422 24-265, limits assumed); test: ELISA, similar to Table 24
T4 sequence (looked up): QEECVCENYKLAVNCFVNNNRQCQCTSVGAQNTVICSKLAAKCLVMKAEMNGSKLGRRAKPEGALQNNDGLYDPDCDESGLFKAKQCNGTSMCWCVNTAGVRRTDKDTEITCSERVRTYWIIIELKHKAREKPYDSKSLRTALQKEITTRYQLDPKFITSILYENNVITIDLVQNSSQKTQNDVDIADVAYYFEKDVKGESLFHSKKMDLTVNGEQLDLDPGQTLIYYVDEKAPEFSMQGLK

Binder	Kd [1]	koff [1]	kon [1]	EC50 [2]	Internalization %, MCF-7, 0.25 µg/ml, 1 h [3]	Internalization %, MCF-7, 0.25 µg/ml, 2 h [3]	Internalization %, MCF-7, 0.25 µg/ml, 4 h [3]	Internalization %, MCF-7, 0.5 µg/ml, 1 h [3]	Internalization %, MCF-7, 0.5 µg/ml, 2 h [3]	Internalization %, MCF-7, 0.5 µg/ml, 4 h [3]	binding result [4]	binding result [5]
9F7 (antibody, V domains shown, Rabbit-derived clone; LEM construct: VH + rabbit IgG CH1 + human IgG1 CH2-CH3) VH: QEQLKESGGGLVQPGGSLTLSCKASGFDFNNYGVSWVRQAPGKGLEWIGYIYPAYHNTYYATWVNGRFTISSHNAQNTLYLQLNTLTAADTATYFCARDTGSTDYNFNLWGPGTLVTVSS VL: DVVMTQTPASVEVAVGGTVTIKCQASEDIESYLAWYQQKPGQPPKLLIYEASKLASGVSSRFSGGGYGTEFTLTISGVECADAATYYCQQALTVGNVDNPFGGGSEVVVK	0.04 nM	2.8e-05 s⁻¹	634000 M⁻¹ s⁻¹	0.3 nM	2%	31%	36%	29%	44%	49%	no binding	no binding
62E3 (antibody, V domains shown, Rabbit-derived clone; LEM construct: VH + rabbit IgG CH1 + human IgG1 CH2-CH3) VH: QEQLKESGGGLVQPGGSLKLSCKASGFDFNEYGVSWVRQAPGKGLEWIAYIYPAFHNTYYATWVNGRFTISSHNAQNTLYLQLNTLTAADTATYFCARDAGTTDYNFNLWGPGTLVTVSS VL: DVVMTQTASPVSAAVGGTVTIKCQASEDIESYLAWYQQKPGQPPKLLIYEASKLASGVSSRFSGSGYGTEFTLTISGVECADAATYYCQQALTIGNVDNPFGGGSEVVVK	0.59 nM	0.000429 s⁻¹	726000 M⁻¹ s⁻¹	0.7 nM	23%	39%	45%	21%	41%	40%	no binding	no binding
9D7 (antibody, V domains shown, Rabbit-derived clone; LEM construct: VH + rabbit IgG CH1 + human IgG1 CH2-CH3) VH: QSLEESGGDLVQPGASLTLTCKASGFDLNNYSILWVRQAPGKGLEWIGCIYISGGSTYYANWAKGRFAISKTSSTTVTLQMTSLTAADTATYFCARDDGTASYYLNLWGPGTLVTVSS VL: YDMTQTPASVSEPVGGTVTIKCQASEDIYKLLAWYQQKPGQPPKLLIYAASDLESGVPSRFKGRGSGTDYTLTISDLECADAATYYCQQAYTIGNIDNSFGGGTEVVVK	< 0.002 nM	< 1e-06 s⁻¹	432000 M⁻¹ s⁻¹	1.2 nM	42%	75%	69%	46%	60%	65%	no binding	no binding
74F11/15F5 (antibody, human IgG1, V domains shown, LEM construct: VH + rabbit IgG CH1 + human IgG1 CH2-CH3) VH: QEQLKESGGGLVQPGGSLKLSCKASGFDFNNYGMSWVRQAPGKGLEWIAYIYPAFHNTYYANWVNGRFTISSDNAQNTVDLQLNSLTAADTATYFCARDAGSTDYNFNLWGPGTLVTVSS VL: DVVMTQTPASVEAAVGGTVTIKCQASEDIERYLAWYQQKPGQPPKLLIYEASKLPSGVSSRFSGSGYGTEFTLTISGVECADAATYYCQQALTIGYVDNPFGGGSEVVVK	0.01 nM	9e-06 s⁻¹	707000 M⁻¹ s⁻¹	0.9 nM	22%	35%	64%	22%	54%	50%	no binding	no binding
10A9 (antibody, V domains shown, Rabbit-derived clone; LEM construct: VH + rabbit IgG CH1 + human IgG1 CH2-CH3) VH: QSLEESGGDLVQPGASLTLTCKASGFDLNNYAMLWVRQAPGKGLEWIGCIYISGGTTYFASWATGRFAISKTSSTTVTLQMTSLTAADTATYFCARDDGTTSYYLNLWGPGTLVTVSS VL: YDMTQTPASVSAAVGGTVTIKCQASEDIYSLLAWYQQKPGQPPKLLIYGASNLESGVPSRFKGSGSGTEYTLTISDLECDDAATYYCQQAYTIGNIDNAFGGGTEVVVK	0.18 nM	8.2e-05 s⁻¹	448000 M⁻¹ s⁻¹	1.4 nM	15%	33%	45%	26%	39%	49%	no binding	no binding

Further binders by falling Kd [1], results first:

Kd [1]	koff [1]	kon [1]	EC50 [2]	Internalization %, MCF-7, 0.25 µg/ml, 1 h [3]	Internalization %, MCF-7, 0.25 µg/ml, 2 h [3]	Internalization %, MCF-7, 0.25 µg/ml, 4 h [3]	Internalization %, MCF-7, 0.5 µg/ml, 1 h [3]	Internalization %, MCF-7, 0.5 µg/ml, 2 h [3]	Internalization %, MCF-7, 0.5 µg/ml, 4 h [3]	binding result [4]	binding result [5]	Binder
2.86 nM	0.00126 s⁻¹	438000 M⁻¹ s⁻¹	1 nM	29%	42%	57%	28%	42%	52%	no binding	no binding	9D7-2 (antibody, V domains shown) VH: QSLEESGGDLVQPGASLTLTCKASGFDLNNYSILWVRQAPGKGLEWIGSIYISGGSTYYANWAKGRFAISKTSSTTVTLQMTSLTAADTATYFCARDDGTASYYLNLWGPGTLVTVSS VL: YDMTQTPASVSEPVGGTVTIKCQASEDIYKLLAWYQQKPGQPPKLLIYAASDLESGVPSRFKGRGSGTDYTLTISDLEAADAATYYCQQAYTIGNIDNSFGGGTEVVVK
0.63 nM	0.000541 s⁻¹	865000 M⁻¹ s⁻¹	0.7 nM	21%	37%	47%	24%	39%	48%	no binding	no binding	72F12 (antibody, V domains shown, Rabbit-derived clone; LEM construct: VH + rabbit IgG CH1 + human IgG1 CH2-CH3) VH: QEQLKESGGGLVQPGGSLKLSCKASGFDFNNYGVSWVRQAPGKGLEWIAYIYPAFHNTYYATWVNGRFTISSHNAQNTLYLQLNSLTAADTATYFCARDAGSVDYNFNLWGPGTLVTVSS VL: DVVMTQTPASVEVAVGGTVTIKCQASKNIDSNLAWYQQKPGQPPKQLIYAASTLASGVSSRFSGSGYGAEFTLTISGVECADAATYYCQQALTIGNVDNPFGGGSEVVVK
0.22 nM	0.000131 s⁻¹	604000 M⁻¹ s⁻¹	0.9 nM	30%	56%	49%	44%	54%	65%	no binding	no binding	1D10 (antibody, V domains shown, Rabbit-derived clone; LEM construct: VH + rabbit IgG CH1 + human IgG1 CH2-CH3) VH: QEQLKESGGGLVQPGGSLTLSCKASGFDFNYYGVSWVRQAPGKGLEWIGYIYPAYHNTYYATWVNGRFTISSHNAQNTLYLQLNTLTAADTATYFCARDAGSTDYNLNLWGPGTLVTVSS VL: DVVMTQTPASVEVAVGGTVTIKCQASEDIESYLAWYQQKPGQPPRLLIYEASKLASGVSSRFSGGGYGTDFTLTISGVECADAATYYCHQALTIGNVDNPFGGGGEVVVK
